Measurements published in patent US20210024639A1 (AGOMAB THERAPEUTICS, published 2021).

B1: chimeric llama-human IgG1 mAb 74C8 (antibody, V domains shown)
VH: EVQLVESGGGLVQPGGSLRLSCAASGFTFRNYHMSWVRQVPGKGFEWISDINSAGGSTYYADSVKGRFTISRDNAKNTLYLEMNSLKPEDTALYYCARVNVWGVNYWGKGTLVSVSS
VL: QTVVTQEPSLSVSPGGTVTLTCGLSSGSVTTSNYPGWFQQTPGQAPRTLIYNTNSRHSGVPSRFSGSISGNKAALTITGAQPEDEADYYCSLYPGSYTNVFGGGTHLTVL
B2: chimeric llama-human IgG1 mAb 71G12 (antibody, V domains shown)
VH: QVQLQESGGDLVQPGGSLRVSCVVSGFTFSRYYMSWVRQAPGKGLEWVSSIDSYGYSTYYTDSVKGRFTISRDNAKNTLYLQMNSLKPEDTALYYCARAKTTWSYDYWGQGTQVTVSS
VL: EIVLTQSPSSVTASVGGKVTINCKSSQSVFIASNQKTYLNWYQQRPGQSPRLVISYASTRESGIPDRFSGSGSTTDFTLTISSVQPEDAAVYYCQQAYSHPTFGQGTKVELK
B3: chimeric llama-human IgG1 mAb 76G7 (antibody, V domains shown)
VH: QVQLVESGGNLVQPGGSLRLSCAASGFTFSNYYMSWVRQAPGKGLEWVSDIYSDGSTTWYSDSVKGRFTISRDNAKNTLSLQMNSLKSEDTAVYYCARVKIYPGGYDAWGQGTQVTVSS
VL: QAGLTQPPSVSGSPGKTVTISCAGNSSDVGYGNYVSWYQQFPGMAPKLLIYLVNKRASGITDRFSGSKSGNTASLTISGLQSEDEADYYCASYTGSNNIVFGGGTHLTVL
B4: Fab 71G12 (Fab, V domains shown)
VH: B2 VH
VL: B2 VL
notes: llama Fab (VH-CH1, kappa VL-CL) with MYC flag, crude periplasmic extract
B5: recombinant mouse HGF (R&D Systems) (ligand, UniProt Q08048 33-728, looked up)
chain: QKKRRNTLHEFKKSAKTTLTKEDPLLKIKTKKVNSADECANRCIRNRGFTFTCKAFVFDKSRKRCYWYPFNSMSSGVKKGFGHEFDLYENKDYIRNCIIGKGGSYKGTVSITKSGIKCQPWNSMIPHEHSFLPSSYRGKDLQENYCRNPRGEEGGPWCFTSNPEVRYEVCDIPQCSEVECMTCNGESYRGPMDHTESGKTCQRWDQQTPHRHKFLPERYPDKGFDDNYCRNPDGKPRPWCYTLDPDTPWEYCAIKTCAHSAVNETDVPMETTECIQGQGEGYRGTSNTIWNGIPCQRWDSQYPHKHDITPENFKCKDLRENYCRNPDGAESPWCFTTDPNIRVGYCSQIPKCDVSSGQDCYRGNGKNYMGNLSKTRSGLTCSMWDKNMEDLHRHIFWEPDASKLNKNYCRNPDDDAHGPWCYTGNPLIPWDYCPISRCEGDTTPTIVNLDHPVISCAKTKQLRVVNGIPTQTTVGWMVSLKYRNKHICGGSLIKESWVLTARQCFPARNKDLKDYEAWLGIHDVHERGEEKRKQILNISQLVYGPEGSDLVLLKLARPAILDNFVSTIDLPSYGCTIPEKTTCSIYGWGYTGLINADGLLRVAHLYIMGNEKCSQHHQGKVTLNESELCAGAEKIGSGPCEGDYGGPLICEQHKMRMVLGVIVPGRGCAIPNRPGIFVRVAYYAKWIHKVILTYKL
modifications: biotinylated at the N-terminus using NHS-LC-biotin in the competition ELISA only

Molecular target: T1, human MET-Fc chimeric protein (R&D Systems) (human, UniProt P08581 25-932)
T1 construct: extracellular domain; bought (R&D Systems); also called hMET; not shown: Fc portion of human IgG1
Experiment: competition ELISA, hMET-Fc in solid phase, competitor 0.3 nM biotinylated hHGF
Method: (§1) To investigate along this line, we tested the competition between mAbs and HGF by ELISA. Recombinant human and mouse HGF (R&D Systems) were biotinylated at the N-terminus using NHS-LC-biotin (Thermo Scientific). MET-Fc protein, either human or mouse (R&D Systems), was immobilized in solid phase and then exposed to 0.3 nM biotinylated HGF, either human or mouse, in the presence of increasing concentrations of antibodies (0-120 nM).
(§2) A MET-Fc chimeric protein (either human or mouse) was immobilized in solid phase and exposed to a fixed concentration of biotinylated HGF (either human or mouse), in the presence of increasing concentrations of antibodies. […] Antibody-HGF competition is expressed as IC₅₀ (the concentration that achieves 50% competition) and IMAX (the maximum % competition reached at saturation).

T1 sequence (P08581 25-932, change not shown): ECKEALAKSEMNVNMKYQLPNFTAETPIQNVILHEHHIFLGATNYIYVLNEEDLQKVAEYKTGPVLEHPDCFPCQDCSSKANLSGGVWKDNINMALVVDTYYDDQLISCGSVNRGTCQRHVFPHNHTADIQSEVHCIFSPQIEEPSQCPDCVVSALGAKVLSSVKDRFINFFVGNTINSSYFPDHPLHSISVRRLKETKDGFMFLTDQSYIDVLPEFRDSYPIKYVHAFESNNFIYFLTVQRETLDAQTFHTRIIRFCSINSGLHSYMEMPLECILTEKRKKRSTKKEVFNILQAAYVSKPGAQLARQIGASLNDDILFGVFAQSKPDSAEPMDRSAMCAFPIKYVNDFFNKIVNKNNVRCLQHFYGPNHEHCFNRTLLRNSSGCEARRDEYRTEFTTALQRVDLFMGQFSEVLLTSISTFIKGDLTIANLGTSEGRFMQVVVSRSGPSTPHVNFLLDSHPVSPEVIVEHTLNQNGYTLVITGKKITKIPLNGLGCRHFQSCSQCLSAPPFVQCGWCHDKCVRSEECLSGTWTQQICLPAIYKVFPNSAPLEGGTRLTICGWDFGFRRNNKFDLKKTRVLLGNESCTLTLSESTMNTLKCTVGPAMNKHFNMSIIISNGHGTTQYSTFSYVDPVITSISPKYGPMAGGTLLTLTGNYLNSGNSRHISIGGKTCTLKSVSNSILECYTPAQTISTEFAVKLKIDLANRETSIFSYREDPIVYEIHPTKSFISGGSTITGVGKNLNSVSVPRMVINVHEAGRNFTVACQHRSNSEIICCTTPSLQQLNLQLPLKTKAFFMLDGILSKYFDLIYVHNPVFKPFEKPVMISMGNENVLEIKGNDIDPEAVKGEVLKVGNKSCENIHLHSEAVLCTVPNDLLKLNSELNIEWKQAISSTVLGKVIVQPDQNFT

Row | Binder | IMAX (maximum % competition) [%]
1 | B1 | 76.9
2 | B2 | 51.4
3 | B3 | 69.4

Molecular target: T2, mouse MET-Fc chimeric protein (R&D Systems) (mouse, UniProt P16056 25-929, limits assumed)
T2 construct: bought (R&D Systems); also called mMET; not shown: Fc
Experiment: competition ELISA, mMET-Fc in solid phase, competitor 0.3 nM biotinylated mHGF
Method: as §1, §2

Row | Binder | IMAX (maximum % competition) [%]
4 | B1 | 71.5
5 | B2 | 50.7
6 | B3 | 62.5

Molecular target: T3, human MET extracellular domain (ECD) (human, UniProt P08581 25-932)
T3 construct: range 1-932; recombinant ECD; also called hMET; human MET ECD
Experiment: ELISA, periplasmic Fab on MET ECD
Method: Fab-expressing phages from the libraries described above were produced according to standard phage display protocols. For selection, phages were first adsorbed to immobilized recombinant human MET ECD, washed, and then eluted using trypsin. After two cycles of selection with human MET ECD, two other cycles were performed in the same fashion using mouse MET ECD. In parallel, we also selected phages alternating a human MET ECD cycle with a mouse MET ECD cycle, for a total of four cycles. Phages selected by the two approaches were pooled together and then used to infect TG1 E. coli. Individual colonies were isolated and secretion of Fabs was induced using IPTG (Fermentas). The Fab-containing periplasmic fraction of bacteria was collected and tested for its ability to bind human and mouse MET ECD by Surface Plasmon Resonance (SPR). Human or mouse MET ECD was immobilized on a CM-5 chip using amine coupling in sodium acetate buffer (GE Healthcare). The Fab-containing periplasmic extracts were loaded into a BIACORE 3000 apparatus (GE Healthcare) with a flow rate of 30 μl/min. The Fab off-rates (koff) were measured over a two minute period. Binding of Fabs to human and mouse MET was further characterized by ELISA using MET ECD in solid phase and periplasmic crude extract in solution.
TABLE 7 Fabs binding to both human MET (hMET) and mouse MET (mMET). Fabs are grouped in families based on their VH CDR3 sequence. Binding of Fabs to human and mouse MET ECD was determined by Surface Plasmon Resonance (SPR) and by ELISA. SPR values represent the koff (s⁻¹). ELISA values represent the Optical Density (OD) at 450 nm (AU, arbitrary units). Both SPR and ELISA were performed using crude periplasmic extracts. Fab concentration in the extract was not determined. Values are the mean of three independent measurements.

T3 sequence (P08581 25-932 limits assumed, form in doubt): as the sequence (P08581 25-932, change not shown) above

Row | Binder | ELISA OD450 [AU]
7 | B4 | 0.45

Molecular target: T4, native mouse MET on living mouse cells (mouse, UniProt P16056 25-1379)
T4 construct: whole, on cells; also called Mouse cells (MLP29)
Experiment: flow cytometry, MLP29 cells
Method: (§3) We also analysed whether chimeric anti-MET antibodies bound to native human and mouse MET in living cells. […] Antibody binding to cells was analysed by flow cytometry using phycoerythrin-conjugated anti-human IgG1 antibodies (eBioscience) and a CyAn ADP analyser (Beckman Coulter). As a positive control for human MET binding, we used a commercial mouse anti-human MET antibody (R&D Systems) and phycoerythrin-conjugated anti-mouse IgG1 antibodies (eBioscience). As a positive control for mouse MET binding we used a commercial goat anti-mouse MET antibody (R&D Systems) and phycoerythrin-conjugated anti-goat IgG1 antibodies (eBioscience). […] Consistent with the data obtained in ELISA, maximal binding (EMAX) varied depending on antibody, but was similar in human and mouse cells.

Row | Binder | EMAX (% relative to control) [%]
8 | B1 | 73.8
9 | B2 | 121
10 | B3 | 115

Molecular target: T5, native human MET on living human cells (human, UniProt P08581 25-1390)
Experiment: cell-based or functional assay

T5 sequence (P08581 25-1390): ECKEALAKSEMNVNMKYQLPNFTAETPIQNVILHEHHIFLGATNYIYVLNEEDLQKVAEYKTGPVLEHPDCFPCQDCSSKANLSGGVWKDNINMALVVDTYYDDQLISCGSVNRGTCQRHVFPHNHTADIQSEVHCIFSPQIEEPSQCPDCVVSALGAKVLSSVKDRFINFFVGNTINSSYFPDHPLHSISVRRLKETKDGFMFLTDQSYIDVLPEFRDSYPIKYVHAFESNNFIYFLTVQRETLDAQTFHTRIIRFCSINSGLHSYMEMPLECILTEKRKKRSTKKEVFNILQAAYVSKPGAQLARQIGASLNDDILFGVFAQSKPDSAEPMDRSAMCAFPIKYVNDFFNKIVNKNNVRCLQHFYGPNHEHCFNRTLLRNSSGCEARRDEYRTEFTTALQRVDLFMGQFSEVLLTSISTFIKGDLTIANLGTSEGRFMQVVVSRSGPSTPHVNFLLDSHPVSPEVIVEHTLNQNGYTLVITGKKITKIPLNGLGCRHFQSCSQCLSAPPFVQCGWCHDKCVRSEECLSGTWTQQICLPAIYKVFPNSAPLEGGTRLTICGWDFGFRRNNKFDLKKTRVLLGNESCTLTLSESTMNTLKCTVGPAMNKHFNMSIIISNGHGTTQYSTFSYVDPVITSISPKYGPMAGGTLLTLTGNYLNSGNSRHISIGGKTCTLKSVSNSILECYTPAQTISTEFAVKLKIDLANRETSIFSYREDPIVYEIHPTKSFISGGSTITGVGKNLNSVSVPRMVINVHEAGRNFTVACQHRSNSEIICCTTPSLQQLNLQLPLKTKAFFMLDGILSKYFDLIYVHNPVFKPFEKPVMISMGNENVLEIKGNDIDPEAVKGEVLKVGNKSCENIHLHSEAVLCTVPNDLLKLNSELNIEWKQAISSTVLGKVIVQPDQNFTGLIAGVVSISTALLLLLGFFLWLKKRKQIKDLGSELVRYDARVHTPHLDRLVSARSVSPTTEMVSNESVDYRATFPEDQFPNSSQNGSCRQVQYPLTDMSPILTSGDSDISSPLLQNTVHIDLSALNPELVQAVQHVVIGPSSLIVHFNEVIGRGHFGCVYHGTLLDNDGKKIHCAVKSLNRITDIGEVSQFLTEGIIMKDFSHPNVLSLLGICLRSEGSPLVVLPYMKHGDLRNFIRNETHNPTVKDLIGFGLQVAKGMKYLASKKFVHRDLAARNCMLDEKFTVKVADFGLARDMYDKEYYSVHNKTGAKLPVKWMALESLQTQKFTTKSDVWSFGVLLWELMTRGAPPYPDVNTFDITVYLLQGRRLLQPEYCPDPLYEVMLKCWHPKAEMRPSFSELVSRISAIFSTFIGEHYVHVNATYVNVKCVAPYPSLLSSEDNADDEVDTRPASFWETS

Row | Binder | cell scattering score, HPAF-II, 0.001 nM [score 0-4] | cell scattering score, HPAF-II, 0.004 nM [score 0-4] | cell scattering score, HPAF-II, 0.012 nM [score 0-4] | cell scattering score, HPAF-II, 0.037 nM [score 0-4] | cell scattering score, HPAF-II, 0.111 nM [score 0-4] | cell scattering score, HPAF-II, 0.333 nM [score 0-4] | cell scattering score, HPAF-II, 1.000 nM [score 0-4] | cell scattering score, HPAF-II, 3.000 nM [score 0-4] | cell scattering score, HPAF-II, 9.000 nM [score 0-4]
11 | B1 | 0 | 0 | 0 | 1 | 2 | 3 | 3 | 4 | 4
12 | B2 | 0 | 0 | 0 | 0 | 0 | 1 | 2 | 2 | 3
13 | B3 | 0 | 0 | 0 | 0 | 0 | 0 | 1 | 2 | 3

Molecular target: T4, native mouse MET on living mouse cells
Experiment: cell-based or functional assay

Row | Binder | cell scattering score, MLP29, 0.001 nM [score 0-4] | cell scattering score, MLP29, 0.004 nM [score 0-4] | cell scattering score, MLP29, 0.012 nM [score 0-4] | cell scattering score, MLP29, 0.037 nM [score 0-4] | cell scattering score, MLP29, 0.111 nM [score 0-4] | cell scattering score, MLP29, 0.333 nM [score 0-4] | cell scattering score, MLP29, 1.000 nM [score 0-4] | cell scattering score, MLP29, 3.000 nM [score 0-4] | cell scattering score, MLP29, 9.000 nM [score 0-4]
14 | B1 | 0 | 0 | 0 | 1 | 2 | 3 | 3 | 4 | 4
15 | B2 | 0 | 0 | 0 | 0 | 0 | 1 | 2 | 2 | 3
16 | B5 | 0 | 1 | 2 | 3 | 4 | 4 | 4 | 4 | 4
17 | B3 | 0 | 0 | 0 | 0 | 0 | 0 | 1 | 2 | 3

Molecular target: T5, native human MET on living human cells
Experiment: flow cytometry, A549 cells
Method: as §3

Row | Binder | EMAX (% relative to control) [%]
18 | B1 | 85.7
19 | B2 | 110
20 | B3 | 121

Molecular target: T5, native human MET on living human cells
Experiment: cell-based or functional assay
Remark: another data set of the same source

Row | Binder | protection from staurosporine, viability EC50, MCF10A [nM] | protection from staurosporine, viability EMAX, MCF10A [%]
21 | B1 | > 32 | 41.7
22 | B2 | > 32 | 39.4
23 | B3 | 25.4 | 51.9

Molecular target: T4, native mouse MET on living mouse cells
Experiment: cell-based or functional assay
Remark: another data set of the same source

Row | Binder | protection from staurosporine, viability EC50, MLP29 [nM] | protection from staurosporine, viability EMAX, MLP29 [%]
24 | B1 | > 32 | 37.5
25 | B2 | > 32 | 39.7
26 | B5 | 5.35 | 58.6
27 | B3 | 30.1 | 50.2
